B1: Integrin beta-3 (Homo sapiens), P05106 (parent)
chain: MRARPRPRPLWATVLALGALAGVGVGGPNICTTRGVSSCQQCLAVSPMCAWCSDEALPLGSPRCDLKENLLKDNCAPESIEFPVSEARVLEDRPLSDKGSGDSSQVTQVSPQRIALRLRPDDSKNFSIQVRQVEDYPVDIYYLMDLSYSMKDDLWSIQNLGTKLATQMRKLTSNLRIGFGAFVDKPVSPYMYISPPEALENPCYDMKTTCLPMFGYKHVLTLTDQVTRFNEEVKKQSVSRNRDAPEGGFDAIMQATVCDEKIGWRNDASHLLVFTTDAKTHIALDGRLAGIVQPNDGQCHVGSDNHYSASTTMDYPSLGLMTEKLSQKNINLIFAVTENVVNLYQNYSELIPGTTVGVLSMDSSNVLQLIVDAYGKIRSKVELEVRDLPEELSLSFNATCLNNEVIPGLKSCMGLKIGDTVSFSIEAKVRGCPQEKEKSFTIKPVGFKDSLIVQVTFDCDCACQAQAEPNSHRCNNGNGTFECGVCRCGPGWLGSQCECSEEDYRPSQQDECSPREGQPVCSQRGECLCGQCVCHSSDFGKITGKYCECDDFSCVRYKGEMCSGHGQCSCGDCLCDSDWTGYYCNCTTRTDTCMSSNGLLCSGRGKCECGSCVCIQPGSYGDTCEKCPTCPDACTFKKECVECKKFDRGALHDENTCNRYCRDEIESVKELKDTGKDAVNCTYKNEDDCVVRFQYYEDSSGKSILYVVEEPECPKGPDILVVLLSVMGAILLIGLAALLIWKLLITIHDRKEFAKFEEERARAKWDTANNPLYKEATSTFTNITYRGT

Variants of: B1
Conditions: with ita2b_human ITGA2B

Variant | effect of a mutation on the interaction
D749A | decreasing interaction

Variants of: B1
Conditions: with ita2b_human ITGA2B
Remark: another data set of the same source

Variant | effect of a mutation on the interaction
L738A | decreasing interaction

Variants of: B1
Conditions: with ita2b_human ITGA2B
Remark: another data set of the same source

Variant | effect of a mutation on the interaction
W741Y | decreasing interaction

Variants of: B1
Conditions: with ita2b_human ITGA2B
Remark: another data set of the same source

Variant | effect of a mutation on the interaction
I719A | decreasing interaction

From IntAct's records for PubMed 19279667
